Measurements taken from US20250262210A1 (TRUSTEES OF COLUMBIA UNIVERSITY IN THE CITY OF NEW YORK, published 2025).

Key:
Test in all cases: IP/MS, LZTR1 R810W-FLAG, U87
RICTOR = RICTOR (human, UniProt Q6R327 1-1708, limits assumed)
How it was run: (§1)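 Read-out: spectral counts from LC-MS/MS (Orbitrap Fusion) after MaxQuant identification. Variable modifications were Met oxidation, protein N-terminal acetylation and N/Q deamidation.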

ANKRD52 = molecular target: T1, ANKRD52 (human, UniProt Q8NB46 1-1076)
T1 sequence (looked up): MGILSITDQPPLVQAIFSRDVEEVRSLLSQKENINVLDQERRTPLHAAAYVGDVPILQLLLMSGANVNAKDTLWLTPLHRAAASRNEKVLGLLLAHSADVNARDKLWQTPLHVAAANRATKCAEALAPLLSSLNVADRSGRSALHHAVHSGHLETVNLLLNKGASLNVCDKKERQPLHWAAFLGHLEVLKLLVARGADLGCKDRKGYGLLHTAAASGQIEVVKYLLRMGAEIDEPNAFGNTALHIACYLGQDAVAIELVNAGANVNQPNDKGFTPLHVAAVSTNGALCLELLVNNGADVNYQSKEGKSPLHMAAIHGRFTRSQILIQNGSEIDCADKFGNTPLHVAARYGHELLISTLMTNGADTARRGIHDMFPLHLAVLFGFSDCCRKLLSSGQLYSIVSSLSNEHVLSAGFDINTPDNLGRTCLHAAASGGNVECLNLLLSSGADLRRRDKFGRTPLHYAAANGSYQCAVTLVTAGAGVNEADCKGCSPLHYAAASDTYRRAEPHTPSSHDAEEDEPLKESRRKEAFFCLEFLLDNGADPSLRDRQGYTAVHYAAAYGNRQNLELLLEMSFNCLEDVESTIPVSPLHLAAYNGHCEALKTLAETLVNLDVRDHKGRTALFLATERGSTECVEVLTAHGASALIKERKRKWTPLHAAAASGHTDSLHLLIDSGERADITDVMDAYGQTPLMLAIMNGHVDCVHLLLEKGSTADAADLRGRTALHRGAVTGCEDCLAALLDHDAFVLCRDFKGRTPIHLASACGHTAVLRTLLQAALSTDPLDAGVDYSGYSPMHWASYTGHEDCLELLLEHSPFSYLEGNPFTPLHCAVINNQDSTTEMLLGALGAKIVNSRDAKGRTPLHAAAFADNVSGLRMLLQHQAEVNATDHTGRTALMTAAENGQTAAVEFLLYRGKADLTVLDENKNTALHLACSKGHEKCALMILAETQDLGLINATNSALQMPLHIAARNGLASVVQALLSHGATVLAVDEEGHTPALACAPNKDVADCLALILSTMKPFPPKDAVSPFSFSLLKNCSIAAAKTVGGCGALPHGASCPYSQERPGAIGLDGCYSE
How it was run: as §1

BRCA2 = BRCA2 (human, UniProt P51587 1-3418)
How it was run: as §1

Measured: binding result

RICTOR, sequence (Q6R327 whole entry, the tested form may be a part): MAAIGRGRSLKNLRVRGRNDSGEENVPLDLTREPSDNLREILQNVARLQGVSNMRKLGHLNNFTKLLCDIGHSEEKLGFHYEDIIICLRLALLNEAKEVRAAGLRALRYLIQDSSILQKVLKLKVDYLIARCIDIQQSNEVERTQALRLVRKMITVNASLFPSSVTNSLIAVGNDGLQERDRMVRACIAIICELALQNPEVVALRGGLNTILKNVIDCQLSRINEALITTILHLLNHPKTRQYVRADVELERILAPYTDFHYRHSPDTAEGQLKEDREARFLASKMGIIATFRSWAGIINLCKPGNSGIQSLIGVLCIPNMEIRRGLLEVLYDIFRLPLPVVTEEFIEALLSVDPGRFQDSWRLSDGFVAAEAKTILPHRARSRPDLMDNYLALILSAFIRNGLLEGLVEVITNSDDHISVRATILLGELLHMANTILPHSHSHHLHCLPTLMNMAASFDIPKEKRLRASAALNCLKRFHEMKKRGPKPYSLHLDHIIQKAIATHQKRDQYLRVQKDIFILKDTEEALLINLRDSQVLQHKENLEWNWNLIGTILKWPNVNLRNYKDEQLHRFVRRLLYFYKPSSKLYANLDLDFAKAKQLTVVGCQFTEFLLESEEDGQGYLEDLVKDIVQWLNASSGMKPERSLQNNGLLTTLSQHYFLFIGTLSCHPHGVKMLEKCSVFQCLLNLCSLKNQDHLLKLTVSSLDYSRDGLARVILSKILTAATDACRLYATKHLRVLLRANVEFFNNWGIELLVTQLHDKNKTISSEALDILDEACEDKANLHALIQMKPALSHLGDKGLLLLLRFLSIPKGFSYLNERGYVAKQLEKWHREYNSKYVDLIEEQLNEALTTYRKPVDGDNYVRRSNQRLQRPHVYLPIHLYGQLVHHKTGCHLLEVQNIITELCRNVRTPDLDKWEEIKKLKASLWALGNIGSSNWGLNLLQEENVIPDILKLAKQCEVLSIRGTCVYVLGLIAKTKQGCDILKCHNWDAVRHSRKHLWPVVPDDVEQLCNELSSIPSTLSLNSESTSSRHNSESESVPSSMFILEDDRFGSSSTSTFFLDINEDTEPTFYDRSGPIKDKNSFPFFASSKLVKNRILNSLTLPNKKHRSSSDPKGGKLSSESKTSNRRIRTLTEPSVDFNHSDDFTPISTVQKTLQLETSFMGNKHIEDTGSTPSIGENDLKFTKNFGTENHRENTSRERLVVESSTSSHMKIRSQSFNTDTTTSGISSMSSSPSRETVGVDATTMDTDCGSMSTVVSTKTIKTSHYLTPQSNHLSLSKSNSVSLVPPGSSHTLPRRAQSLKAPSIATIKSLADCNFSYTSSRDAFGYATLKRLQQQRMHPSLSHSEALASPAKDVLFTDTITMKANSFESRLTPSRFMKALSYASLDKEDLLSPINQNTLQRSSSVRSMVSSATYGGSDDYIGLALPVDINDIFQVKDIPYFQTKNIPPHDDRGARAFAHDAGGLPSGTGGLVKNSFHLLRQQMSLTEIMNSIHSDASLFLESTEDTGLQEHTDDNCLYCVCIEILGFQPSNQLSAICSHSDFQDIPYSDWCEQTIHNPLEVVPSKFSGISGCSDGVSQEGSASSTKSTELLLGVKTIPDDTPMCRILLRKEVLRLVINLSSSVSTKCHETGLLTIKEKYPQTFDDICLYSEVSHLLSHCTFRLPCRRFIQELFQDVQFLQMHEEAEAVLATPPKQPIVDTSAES
BRCA2, sequence (P51587 whole entry): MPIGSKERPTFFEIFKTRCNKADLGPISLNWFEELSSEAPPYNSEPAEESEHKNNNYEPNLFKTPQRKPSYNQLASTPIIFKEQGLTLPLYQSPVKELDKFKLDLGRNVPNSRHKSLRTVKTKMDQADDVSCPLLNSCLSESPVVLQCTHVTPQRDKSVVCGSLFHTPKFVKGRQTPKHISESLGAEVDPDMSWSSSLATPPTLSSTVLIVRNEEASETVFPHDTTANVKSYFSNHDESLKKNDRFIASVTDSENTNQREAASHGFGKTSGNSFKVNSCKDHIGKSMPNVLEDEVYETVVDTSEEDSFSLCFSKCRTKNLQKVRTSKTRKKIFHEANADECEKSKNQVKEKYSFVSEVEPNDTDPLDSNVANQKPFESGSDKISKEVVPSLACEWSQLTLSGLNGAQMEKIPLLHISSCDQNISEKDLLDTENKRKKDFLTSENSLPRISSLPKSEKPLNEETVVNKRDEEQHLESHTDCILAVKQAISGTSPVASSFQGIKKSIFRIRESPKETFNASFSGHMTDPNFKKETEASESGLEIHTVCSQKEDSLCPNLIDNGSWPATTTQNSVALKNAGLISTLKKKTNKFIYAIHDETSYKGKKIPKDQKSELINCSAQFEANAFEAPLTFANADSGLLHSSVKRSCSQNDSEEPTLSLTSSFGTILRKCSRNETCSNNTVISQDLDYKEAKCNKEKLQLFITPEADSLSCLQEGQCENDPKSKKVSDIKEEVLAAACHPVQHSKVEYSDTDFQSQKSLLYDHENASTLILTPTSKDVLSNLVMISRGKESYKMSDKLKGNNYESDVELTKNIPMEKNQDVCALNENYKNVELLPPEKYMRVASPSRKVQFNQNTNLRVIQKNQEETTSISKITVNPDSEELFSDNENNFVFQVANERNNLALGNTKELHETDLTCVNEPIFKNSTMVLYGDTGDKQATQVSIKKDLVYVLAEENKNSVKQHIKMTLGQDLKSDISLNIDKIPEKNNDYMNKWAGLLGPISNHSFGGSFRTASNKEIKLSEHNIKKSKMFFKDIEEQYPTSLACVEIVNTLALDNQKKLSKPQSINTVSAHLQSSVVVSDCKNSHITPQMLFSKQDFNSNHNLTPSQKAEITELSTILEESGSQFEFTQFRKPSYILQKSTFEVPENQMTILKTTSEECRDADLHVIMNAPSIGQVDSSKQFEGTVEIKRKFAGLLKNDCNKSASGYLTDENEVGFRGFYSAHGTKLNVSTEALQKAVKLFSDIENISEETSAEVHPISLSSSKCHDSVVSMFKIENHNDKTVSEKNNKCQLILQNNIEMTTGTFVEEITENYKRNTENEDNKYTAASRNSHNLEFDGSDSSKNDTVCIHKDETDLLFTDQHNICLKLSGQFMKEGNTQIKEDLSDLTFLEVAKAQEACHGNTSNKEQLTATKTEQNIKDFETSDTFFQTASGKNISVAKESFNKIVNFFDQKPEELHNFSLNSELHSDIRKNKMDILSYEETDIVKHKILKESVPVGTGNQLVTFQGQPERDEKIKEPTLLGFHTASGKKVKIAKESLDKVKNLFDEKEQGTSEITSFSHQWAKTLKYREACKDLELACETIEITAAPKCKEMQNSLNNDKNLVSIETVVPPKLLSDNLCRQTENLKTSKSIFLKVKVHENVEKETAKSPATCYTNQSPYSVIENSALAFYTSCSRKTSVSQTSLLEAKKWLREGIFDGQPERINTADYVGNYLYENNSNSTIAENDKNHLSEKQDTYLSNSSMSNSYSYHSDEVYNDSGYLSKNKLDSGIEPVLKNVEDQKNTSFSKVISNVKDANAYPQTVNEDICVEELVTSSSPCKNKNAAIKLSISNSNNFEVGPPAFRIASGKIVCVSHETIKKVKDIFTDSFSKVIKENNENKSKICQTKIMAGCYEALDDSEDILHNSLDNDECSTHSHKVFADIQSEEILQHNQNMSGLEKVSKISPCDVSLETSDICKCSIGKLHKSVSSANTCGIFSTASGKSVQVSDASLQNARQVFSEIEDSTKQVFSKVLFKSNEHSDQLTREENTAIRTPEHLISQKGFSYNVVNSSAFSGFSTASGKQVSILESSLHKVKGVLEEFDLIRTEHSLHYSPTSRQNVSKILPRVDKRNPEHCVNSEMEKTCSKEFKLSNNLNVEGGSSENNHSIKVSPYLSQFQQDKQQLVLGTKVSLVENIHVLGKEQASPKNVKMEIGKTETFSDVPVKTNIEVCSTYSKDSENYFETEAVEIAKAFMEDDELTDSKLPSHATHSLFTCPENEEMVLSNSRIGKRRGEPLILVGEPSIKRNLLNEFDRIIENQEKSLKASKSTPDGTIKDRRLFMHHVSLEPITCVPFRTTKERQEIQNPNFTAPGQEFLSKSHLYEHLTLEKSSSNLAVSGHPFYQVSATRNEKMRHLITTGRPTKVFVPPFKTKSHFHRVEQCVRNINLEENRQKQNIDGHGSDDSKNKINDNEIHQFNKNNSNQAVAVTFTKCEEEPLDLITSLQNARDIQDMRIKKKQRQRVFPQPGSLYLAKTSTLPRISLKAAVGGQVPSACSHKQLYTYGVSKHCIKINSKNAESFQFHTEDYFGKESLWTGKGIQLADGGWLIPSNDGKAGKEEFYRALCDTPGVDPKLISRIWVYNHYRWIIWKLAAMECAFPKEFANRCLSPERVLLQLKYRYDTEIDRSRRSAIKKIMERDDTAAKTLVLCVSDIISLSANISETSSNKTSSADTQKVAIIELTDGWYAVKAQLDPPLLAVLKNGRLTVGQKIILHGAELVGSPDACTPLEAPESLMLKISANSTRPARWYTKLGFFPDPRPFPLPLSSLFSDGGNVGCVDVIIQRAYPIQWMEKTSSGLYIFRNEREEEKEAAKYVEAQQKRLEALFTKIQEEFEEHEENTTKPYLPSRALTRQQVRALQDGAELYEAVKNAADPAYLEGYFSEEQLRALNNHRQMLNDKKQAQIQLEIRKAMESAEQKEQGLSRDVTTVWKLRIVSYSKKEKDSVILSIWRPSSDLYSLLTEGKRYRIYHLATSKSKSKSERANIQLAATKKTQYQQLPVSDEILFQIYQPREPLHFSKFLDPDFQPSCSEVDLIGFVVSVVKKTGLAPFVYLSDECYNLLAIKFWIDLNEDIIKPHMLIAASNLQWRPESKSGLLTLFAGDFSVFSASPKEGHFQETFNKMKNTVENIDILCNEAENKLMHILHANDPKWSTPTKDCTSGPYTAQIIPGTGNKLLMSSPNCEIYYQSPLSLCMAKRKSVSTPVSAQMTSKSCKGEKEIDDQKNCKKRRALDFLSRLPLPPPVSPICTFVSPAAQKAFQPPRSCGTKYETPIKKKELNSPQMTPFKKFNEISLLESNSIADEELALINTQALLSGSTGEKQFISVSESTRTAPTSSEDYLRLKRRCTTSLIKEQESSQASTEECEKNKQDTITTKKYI

B1: LZTR1 R810W-FLAG (other, human, UniProt Q8N653 1-840, looked up)
chain: MAGPGSTGGQIGAAALAGGARSKVAPSVDFDHSCSDSVEYLTLNFGPFETVHRWRRLPPCDEFVGARRSKHTVVAYKDAIYVFGGDNGKTMLNDLLRFDVKDCSWCRAFTTGTPPAPRYHHSAVVYGSSMFVFGGYTGDIYSNSNLKNKNDLFEYKFATGQWTEWKIEGRLPVARSAHGATVYSDKLWIFAGYDGNARLNDMWTIGLQDRELTCWEEVAQSGEIPPSCCNFPVAVCRDKMFVFSGQSGAKITNNLFQFEFKDKTWTRIPTEHLLRGSPPPPQRRYGHTMVAFDRHLYVFGGAADNTLPNELHCYDVDFQTWEVVQPSSDSEVGGAEVPERACASEEVPTLTYEERVGFKKSRDVFGLDFGTTSAKQPTQPASELPSGRLFHAAAVISDAMYIFGGTVDNNIRSGEMYRFQFSCYPKCTLHEDYGRLWESRQFCDVEFVLGEKEECVQGHVAIVTARSRWLRRKITQARERLAQKLEQEAAPVPREAPGVAAGGARPPLLHVAIREAEARPFEVLMQFLYTDKIKYPRKGHVEDVLLIMDVYKLALSFQLCRLEQLCRQYIEASVDLQNVLVVCESAARLQLSQLKEHCLNFVVKESHFNQVIMMKEFERLSSPLIVEIVRRKQQPPPRTPLDQPVDIGTSLIQDMKAYLEGAGAEFCDITLLLDGHPRPAHKAILAARSSYFEAMFRSFMPEDGQVNISIGEMVPSRQAFESMLRYIYYGEVNMPPEDSLYLFAAPYYYGFYNNRLQAYCKQNLEMNVTVQNVLQILEAADKTQALDMKRHCLHIIVHQFTKVSKLPTLWSLSQQLLLDIIDSLASHISDKQCAELGADI
notes: Stably expressed in U87 cells by lentivirus; also called LZTR1-FLAG-R810W; LZTR1 RW; not shown: FLAG tag
binds: RICTOR | ANKRD52 | BRCA2
